T1: EsCas13d, nuclease-dead (Eubacterium siraeum, UniProt B0MS50, R295A;H300A;R849A;H854A)
T1 sequence: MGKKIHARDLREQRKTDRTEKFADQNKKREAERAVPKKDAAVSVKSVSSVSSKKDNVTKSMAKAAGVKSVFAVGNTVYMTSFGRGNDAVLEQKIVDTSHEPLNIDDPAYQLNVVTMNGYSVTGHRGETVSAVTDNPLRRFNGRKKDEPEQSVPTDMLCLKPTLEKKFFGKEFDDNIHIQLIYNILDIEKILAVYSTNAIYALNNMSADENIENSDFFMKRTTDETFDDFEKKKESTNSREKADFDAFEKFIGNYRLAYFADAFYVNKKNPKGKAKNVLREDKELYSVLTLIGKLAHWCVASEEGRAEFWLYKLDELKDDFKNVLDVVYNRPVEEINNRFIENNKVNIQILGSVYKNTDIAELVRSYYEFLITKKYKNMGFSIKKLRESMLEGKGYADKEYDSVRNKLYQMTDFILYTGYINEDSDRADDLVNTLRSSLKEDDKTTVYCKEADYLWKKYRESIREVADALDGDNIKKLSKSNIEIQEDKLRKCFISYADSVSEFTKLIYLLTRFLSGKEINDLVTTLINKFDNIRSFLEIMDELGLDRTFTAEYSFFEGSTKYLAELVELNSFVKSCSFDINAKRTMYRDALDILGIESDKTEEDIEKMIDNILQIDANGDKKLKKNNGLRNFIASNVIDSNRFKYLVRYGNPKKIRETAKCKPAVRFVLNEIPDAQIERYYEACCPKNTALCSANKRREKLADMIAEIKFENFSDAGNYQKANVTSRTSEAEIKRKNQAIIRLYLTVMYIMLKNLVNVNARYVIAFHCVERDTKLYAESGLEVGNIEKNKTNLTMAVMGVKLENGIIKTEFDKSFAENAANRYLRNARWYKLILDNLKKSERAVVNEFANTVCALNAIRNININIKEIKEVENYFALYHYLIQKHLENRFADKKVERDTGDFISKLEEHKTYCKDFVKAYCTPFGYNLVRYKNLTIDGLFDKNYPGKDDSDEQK

B1: target 1 U8G,U11A (mixed)
RNA 1: CACCCGUGCAAAAAUGCAGGGGUCUAAAACUGAGCGGAUAACCUCUCUAUGG
RNA 2: GGGAAUGGAUCCACAUCUACGAAUUCGUACCAUAGAGAGGAUAGCCGCUCACCGAGAUCGGAAGAGCACACGU
B2: target 1 insA 3' of 15,insG 3' of 10 (mixed)
RNA 1: CACCCGUGCAAAAAUGCAGGGGUCUAAAACUGAGCGGAUAACCUCUCUAUGG
RNA 2: GGGAAUGGAUCCACAUCUACGAAUUCGUACCAUAGAGAAGGUUGAUCCGCUCACCGAGAUCGGAAGAGCACACGU
B3: target 1 insC 3' of 5,insU 3' of 5 (mixed)
RNA 1: CACCCGUGCAAAAAUGCAGGGGUCUAAAACUGAGCGGAUAACCUCUCUAUGG
RNA 2: GGGAAUGGAUCCACAUCUACGAAUUCGUACCAUAGAGAGGUUAUCCGCUCUCACCGAGAUCGGAAGAGCACACGU
B4: target 1 G17A,U19C (mixed)
RNA 1: CACCCGUGCAAAAAUGCAGGGGUCUAAAACUGAGCGGAUAACCUCUCUAUGG
RNA 2: GGGAAUGGAUCCACAUCUACGAAUUCGUACCACAAAGAGGUUAUCCGCUCACCGAGAUCGGAAGAGCACACGU
B5: target 1 A1U,A20U (mixed)
RNA 1: CACCCGUGCAAAAAUGCAGGGGUCUAAAACUGAGCGGAUAACCUCUCUAUGG
RNA 2: GGGAAUGGAUCCACAUCUACGAAUUCGUACCUUAGAGAGGUUAUCCGCUCUCCGAGAUCGGAAGAGCACACGU
B6: target 1 C2U,U11A (mixed)
RNA 1: CACCCGUGCAAAAAUGCAGGGGUCUAAAACUGAGCGGAUAACCUCUCUAUGG
RNA 2: GGGAAUGGAUCCACAUCUACGAAUUCGUACCAUAGAGAGGAUAUCCGCUUACCGAGAUCGGAAGAGCACACGU
B7: target 1 C4A,A16C (mixed)
RNA 1: CACCCGUGCAAAAAUGCAGGGGUCUAAAACUGAGCGGAUAACCUCUCUAUGG
RNA 2: GGGAAUGGAUCCACAUCUACGAAUUCGUACCAUAGCGAGGUUAUCCGAUCACCGAGAUCGGAAGAGCACACGU
B8: target 1 insC 3' of 9,insA 3' of 8 (mixed)
RNA 1: CACCCGUGCAAAAAUGCAGGGGUCUAAAACUGAGCGGAUAACCUCUCUAUGG
RNA 2: GGGAAUGGAUCCACAUCUACGAAUUCGUACCAUAGAGAGGUUACUACCGCUCACCGAGAUCGGAAGAGCACACGU
B9: target 1 A1U,C2U (mixed)
RNA 1: CACCCGUGCAAAAAUGCAGGGGUCUAAAACUGAGCGGAUAACCUCUCUAUGG
RNA 2: GGGAAUGGAUCCACAUCUACGAAUUCGUACCAUAGAGAGGUUAUCCGCUUUCCGAGAUCGGAAGAGCACACGU
B10: target 1 insC 3' of 22,insA 3' of 8 (mixed)
RNA 1: CACCCGUGCAAAAAUGCAGGGGUCUAAAACUGAGCGGAUAACCUCUCUAUGG
RNA 2: GGGAAUGGAUCCACAUCUACGAAUUCGUACCCAUAGAGAGGUUAUACCGCUCACCGAGAUCGGAAGAGCACACGU
B11: target 1 C6U,U8A (mixed)
RNA 1: CACCCGUGCAAAAAUGCAGGGGUCUAAAACUGAGCGGAUAACCUCUCUAUGG
RNA 2: GGGAAUGGAUCCACAUCUACGAAUUCGUACCAUAGAGAGGUUAACUGCUCACCGAGAUCGGAAGAGCACACGU
B12: target 1 insU 3' of 9,insG 3' of 2 (mixed)
RNA 1: CACCCGUGCAAAAAUGCAGGGGUCUAAAACUGAGCGGAUAACCUCUCUAUGG
RNA 2: GGGAAUGGAUCCACAUCUACGAAUUCGUACCAUAGAGAGGUUAUUCCGCUCGACCGAGAUCGGAAGAGCACACGU
B13: target 1 U8C,A9C (mixed)
RNA 1: CACCCGUGCAAAAAUGCAGGGGUCUAAAACUGAGCGGAUAACCUCUCUAUGG
RNA 2: GGGAAUGGAUCCACAUCUACGAAUUCGUACCAUAGAGAGGUUCCCCGCUCACCGAGAUCGGAAGAGCACACGU
B14: target 1 insA 3' of 13,insG 3' of 9 (mixed)
RNA 1: CACCCGUGCAAAAAUGCAGGGGUCUAAAACUGAGCGGAUAACCUCUCUAUGG
RNA 2: GGGAAUGGAUCCACAUCUACGAAUUCGUACCAUAGAGAGAGUUAGUCCGCUCACCGAGAUCGGAAGAGCACACGU
B15: target 1 G17A,U19A (mixed)
RNA 1: CACCCGUGCAAAAAUGCAGGGGUCUAAAACUGAGCGGAUAACCUCUCUAUGG
RNA 2: GGGAAUGGAUCCACAUCUACGAAUUCGUACCAAAAAGAGGUUAUCCGCUCACCGAGAUCGGAAGAGCACACGU
B16: target 1 del2,del16 (mixed)
RNA 1: CACCCGUGCAAAAAUGCAGGGGUCUAAAACUGAGCGGAUAACCUCUCUAUGG
RNA 2: GGGAAUGGAUCCACAUCUACGAAUUCGUACCAUAGGAGGUUAUCCGCUACCGAGAUCGGAAGAGCACACGU
B17: target 1 U11G,G12A (mixed)
RNA 1: CACCCGUGCAAAAAUGCAGGGGUCUAAAACUGAGCGGAUAACCUCUCUAUGG
RNA 2: GGGAAUGGAUCCACAUCUACGAAUUCGUACCAUAGAGAGAGUAUCCGCUCACCGAGAUCGGAAGAGCACACGU
B18: target 1 insA 3' of 8,insC 3' of 8 (mixed)
RNA 1: CACCCGUGCAAAAAUGCAGGGGUCUAAAACUGAGCGGAUAACCUCUCUAUGG
RNA 2: GGGAAUGGAUCCACAUCUACGAAUUCGUACCAUAGAGAGGUUAUACCCGCUCACCGAGAUCGGAAGAGCACACGU
B19: target 1 A1U,G15A (mixed)
RNA 1: CACCCGUGCAAAAAUGCAGGGGUCUAAAACUGAGCGGAUAACCUCUCUAUGG
RNA 2: GGGAAUGGAUCCACAUCUACGAAUUCGUACCAUAGAAAGGUUAUCCGCUCUCCGAGAUCGGAAGAGCACACGU
B20: target 1 U8C,G15A (mixed)
RNA 1: CACCCGUGCAAAAAUGCAGGGGUCUAAAACUGAGCGGAUAACCUCUCUAUGG
RNA 2: GGGAAUGGAUCCACAUCUACGAAUUCGUACCAUAGAAAGGUUACCCGCUCACCGAGAUCGGAAGAGCACACGU
B21: target 1 G17C,C22U (mixed)
RNA 1: CACCCGUGCAAAAAUGCAGGGGUCUAAAACUGAGCGGAUAACCUCUCUAUGG
RNA 2: GGGAAUGGAUCCACAUCUACGAAUUCGUAUCAUACAGAGGUUAUCCGCUCACCGAGAUCGGAAGAGCACACGU
B22: target 1 C2U,C21U (mixed)
RNA 1: CACCCGUGCAAAAAUGCAGGGGUCUAAAACUGAGCGGAUAACCUCUCUAUGG
RNA 2: GGGAAUGGAUCCACAUCUACGAAUUCGUACUAUAGAGAGGUUAUCCGCUUACCGAGAUCGGAAGAGCACACGU
B23: target 1 A1G,A20U (mixed)
RNA 1: CACCCGUGCAAAAAUGCAGGGGUCUAAAACUGAGCGGAUAACCUCUCUAUGG
RNA 2: GGGAAUGGAUCCACAUCUACGAAUUCGUACCUUAGAGAGGUUAUCCGCUCGCCGAGAUCGGAAGAGCACACGU
B24: target 1 insU 3' of 12,insG 3' of 9 (mixed)
RNA 1: CACCCGUGCAAAAAUGCAGGGGUCUAAAACUGAGCGGAUAACCUCUCUAUGG
RNA 2: GGGAAUGGAUCCACAUCUACGAAUUCGUACCAUAGAGAGGUUUAGUCCGCUCACCGAGAUCGGAAGAGCACACGU
B25: target 1 insC 3' of 13,insC 3' of 13 (mixed)
RNA 1: CACCCGUGCAAAAAUGCAGGGGUCUAAAACUGAGCGGAUAACCUCUCUAUGG
RNA 2: GGGAAUGGAUCCACAUCUACGAAUUCGUACCAUAGAGAGCCGUUAUCCGCUCACCGAGAUCGGAAGAGCACACGU
B26: target 1 A20U (mixed)
RNA 1: CACCCGUGCAAAAAUGCAGGGGUCUAAAACUGAGCGGAUAACCUCUCUAUGG
RNA 2: GGGAAUGGAUCCACAUCUACGAAUUCGUACCUUAGAGAGGUUAUCCGCUCACCGAGAUCGGAAGAGCACACGU
B27: target 1 insG 3' of 16,insC 3' of 8 (mixed)
RNA 1: CACCCGUGCAAAAAUGCAGGGGUCUAAAACUGAGCGGAUAACCUCUCUAUGG
RNA 2: GGGAAUGGAUCCACAUCUACGAAUUCGUACCAUAGAGGAGGUUAUCCCGCUCACCGAGAUCGGAAGAGCACACGU
B28: target 1 insC 3' of 10,insA 3' of 6 (mixed)
RNA 1: CACCCGUGCAAAAAUGCAGGGGUCUAAAACUGAGCGGAUAACCUCUCUAUGG
RNA 2: GGGAAUGGAUCCACAUCUACGAAUUCGUACCAUAGAGAGGUUCAUCCAGCUCACCGAGAUCGGAAGAGCACACGU

Target: T1, EsCas13d, nuclease-dead
Experiment: crRNA (strand 1, pre-loaded); Mg2+; 40 mM Tris-HCl pH 7.5, 150 mM NaCl, 6 mM MgCl2, 1 mM DTT, 0.1% Tween-20, 0.2 mg/ml BSA; 25 C; 10 min per concentration, then washed
Details: tags: His6-TwinStrep-SUMO cleaved; N-terminal SNAP kept (SNAP-Surface 488); label: 3' end held by stalled T7 RNA polymerase

| Binder | Kd |
| --- | --- |
| B1 | 27.6 ± 2.2 nM |
| B2 | 13.6 ± 1.8 nM |
| B3 | 9.3 ± 0.5 nM |
| B4 | 46 ± 6 nM |
| B5 | 35.1 ± 1.9 nM |
| B6 | 29.5 ± 3.5 nM |
| B7 | 49 ± 11 nM |
| B8 | 8.8 ± 0.5 nM |
| B9 | 9.6 ± 0.5 nM |
| B10 | 31.4 ± 2.8 nM |
| B11 | 15.1 ± 0.5 nM |
| B12 | 24.6 ± 3.2 nM |
| B13 | 30.5 ± 2.7 nM |
| B14 | 6.9 ± 0.5 nM |
| B15 | 54 ± 8 nM |
| B16 | 82 ± 18 nM |
| B17 | 4.27 ± 0.21 nM |
| B18 | 13.2 ± 0.6 nM |
| B19 | 11.2 ± 0.7 nM |
| B20 | 26.8 ± 2.1 nM |
| B21 | 62 ± 11 nM |
| B22 | 8.2 ± 0.8 nM |
| B23 | 37.8 ± 2.3 nM |
| B24 | 13.3 ± 0.8 nM |
| B25 | 35 ± 5 nM |
| B26 | 50 ± 5 nM |
| B27 | 24.3 ± 2 nM |
| B28 | 25.5 ± 2.5 nM |
